Experimental data from US20250326807A1 (published 2025).
Read-outs that look alike come from different tables or passages of the source. Ends that are not written are not given here.

Assays:
[1] = target: T1, Recombinantly expressed fused calprotectin (His6-linker-S100A9-linker-S100A8), product code B-RCAL, BÜHLMANN … (human, UniProt P06702 1-114; P05109 1-93); test: fluorescence polarization
T1 chain: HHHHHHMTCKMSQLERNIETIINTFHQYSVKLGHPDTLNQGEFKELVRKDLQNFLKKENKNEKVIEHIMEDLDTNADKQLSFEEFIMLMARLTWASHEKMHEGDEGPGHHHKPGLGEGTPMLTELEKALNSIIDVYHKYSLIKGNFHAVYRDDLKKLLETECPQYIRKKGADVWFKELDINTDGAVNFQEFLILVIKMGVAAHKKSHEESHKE

[2] = target: T1, Recombinantly expressed fused …; test: fluorescence polarization
[3] = target: T1, Recombinantly expressed fused …
[4] = target: T1, Recombinantly expressed fused …; test: fluorescence polarization
[5] = target: F8 D-Ala; test: SPR
[6] = target: Y16 β-Ala; test: SPR
[7] = target: Q12 β-Ala; test: SPR
[8] = target: Q12 D-Ala; test: SPR
[9] = target: Y16 D-Ala; test: SPR
[10] = target: M10 D-Ala; test: SPR
[11] = target: F11 β-Ala; test: SPR
[12] = target: M10 β-Ala; test: SPR
[13] = target: F8 β-Ala; test: SPR
[14] = target: P9 D-Ala; test: SPR
[15] = target: P9 β-Ala; test: SPR
[16] = target: F11 D-Ala; test: SPR
[17] = target: T1, Recombinantly expressed fused …; test: fluorescence polarization
[18] = target: T1, Recombinantly expressed fused …; test: fluorescence polarization

B1: SCQCPWDLFSQHSLSDCCD (peptide)
peptide: SCQCPWDLFSQHSLSDCCD
modifications: not fully specified; cross-linked between cysteines (linker not named); N-terminal 5(6)-carboxyfluorescein; synthesised on rink amide AM resin
B1 was tested, and the Kd [1] was 25 nM.

B2: VCPCPLFRAHGCSRFSCQ (peptide)
peptide: VCPCPLFRAHGCSRFSCQ
modifications: not fully specified; cross-linked between cysteines (linker not named); N-terminal 5(6)-carboxyfluorescein; synthesised on rink amide AM resin
Work on B2 yielded a Kd [2] of 22 nM.

B3: Linear peptide 3 (RSPESVAFPMFQSHWYSG), all cysteines replaced by serines (peptide)
peptide: RSPESVAFPMFQSHWYSG-NH2
modifications: also: N-terminal 5(6)-carboxyfluorescein only in the fluorescence polarization assay version
Binder B3 has a Kd [3] of 25.5 nM.

B4: ACRTCPLFTCPSCG (peptide)
peptide: ACRTCPLFTCPSCG
modifications: not fully specified; cross-linked between cysteines (linker not named); N-terminal 5(6)-carboxyfluorescein; synthesised on rink amide AM resin
Work on B4 yielded a Kd [4] of 89 nM.

B5: CTQSPCPLYDSHQCSCK (peptide)
peptide: CTQSPCPLYDSHQCSCK
modifications: not fully specified; cross-linked between cysteines (linker not named); N-terminal 5(6)-carboxyfluorescein; synthesised on rink amide AM resin
Work on B5 yielded a Kd [2] of 38 nM.

B6: calprotectin (other)
chain: HHHHHHMTCKMSQLERNIETIINTFHQYSVKLGHPDTLNQGEFKELVRKDLQNFLKKENKNEKVIEHIMEDLDTNADKQLSFEEFIMLMARLTWASHEKMHEGDEGPGHHHKPGLGEGTPMLTELEKALNSIIDVYHKYSLIKGNFHAVYRDDLKKLLETECPQYIRKKGADVWFKELDINTDGAVNFQEFLILVIKMGVAAHKKSHEESHKE
For B6, the Kd [5] was greater than 10000 nM, the Kd [6] was greater than 10000 nM and the Kd [7] was greater than 10000 nM. For the same binder, the Kd [8] was greater than 10000 nM, the Kd [9] was greater than 10000 nM and the Kd [10] was greater than 10000 nM. For the same binder, the Kd [11] was greater than 10000 nM, the Kd [12] was greater than 10000 nM and the Kd [13] was greater than 10000 nM. For the same binder, the Kd [14] was greater than 10000 nM, the Kd [15] was greater than 10000 nM and the Kd [16] was greater than 10000 nM.

B7: TCPLNRTQCPLYACTTCP (peptide)
peptide: TCPLNRTQCPLYACTTCP
modifications: not fully specified; cross-linked between cysteines (linker not named); N-terminal 5(6)-carboxyfluorescein; synthesised on rink amide AM resin
B7 showed a Kd [17] of 34 nM.

B8: VCQQTASRCPVWECQRCP (peptide)
peptide: VCQQTASRCPVWECQRCP
modifications: not fully specified; cross-linked between cysteines (linker not named); N-terminal 5(6)-carboxyfluorescein; synthesised on rink amide AM resin
B8 showed a Kd [17] of 55 nM.

B9: Peptide 3 (RCPECVAFPMFQCHWYCG), phage display derived, cross-linked between cysteines (peptide)
peptide: RCPECVAFPMFQCHWYCG
modifications: not fully specified; cysteines cross-linked by a chemical linker (linker and isomer not named); N-terminal 5(6)-carboxyfluorescein; synthesised on rink amide AM resin
With B9 the Kd [18] was 23 nM.

B10: GCDLAHQPCPLYKCTKCP (peptide)
peptide: GCDLAHQPCPLYKCTKCP
modifications: not fully specified; cross-linked between cysteines (linker not named); N-terminal 5(6)-carboxyfluorescein; synthesised on rink amide AM resin
Binder B10 has a Kd [1] of 10 nM.
